# Reference: the supplement of paper PMC7125110
# ± gives the standard error. Variants at the floor of the assay were thinned out.
# B1: glmS ribozyme (parent)
# chain: AUAAAAGCGCCAGAACUACAGAAAUGUAGUUGACGAGGAGGAGGUUUAUCGAAUUUUCGGCGGAUGCCUCCAAA
# Variants of: B1
# Test: self-cleavage kobs at 10000 uM GlcN6P; higher = faster cleavage; RNA array
# Conditions: with glucosamine-6-phosphate
# Summary of the method: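 Sequenced MiSeq chips were the platform: E. coli RNA polymerase transcribed barcoded ribozyme variants on them in situ, and a hybridised Cy3 probe tracked these at 37 °C. After glucosamine-6-phosphate (40 μM to 10 mM) in HEPES/KCl/Mg(OAc)2 buffer was flowed in, tiles were imaged over ~14 h. Signals normalised to baseline and to non-cleaving reference variants were reduced to per-tile medians and fit to one- or two-exponential decays to obtain kobs. kcat and KM were derived through weighted Michaelis–Menten fits across concentrations.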
row,Variant,self-cleavage kobs at 10000 uM GlcN6P [s⁻¹]
1,U54G G66U C68U,0.000154 ± 3.1e-05
2,G29U C34A G59A U65C,< 1e-05
3,A36U G37C C50U U57A U69G,4.81e-05 ± 2.3e-05
4,A42G C58U,9.52e-05 ± 1.4e-05
5,U30C U46C G59U,< 1e-05
6,C34A U47G A52U C70A,0.00102 ± 0.00046
7,G41C G66C C68A,< 1e-05
8,A15U U30G A48U A53G,0.000112 ± 3.6e-05
9,U30A G44A C68G,< 1e-05
10,G29U G38C G44A U47C,< 1e-05
11,A36C G43U U56C U57A C67G,< 1e-05
12,G40U G43C U65A,< 1e-05
13,A36U G40A G63U,< 1e-05
14,A33G C58U C67U,< 1e-05
15,U56G C58U C67A,3.62e-05 ± 1.5e-05
16,A53U C70G C71G,2.8e-05 ± 1.2e-05
17,U31C G40C U54C U56A A64U,< 1e-05
18,A15G G60A,3.03e-05 ± 1.1e-05
19,A33C A36C C50U C68A,< 1e-05
20,U31A A33C,4.61e-05 ± 1.8e-05
21,G40A A53G C71G,0.00453 ± 0.001
22,G35C G37A C68G,4.58e-05 ± 2e-05
23,C16U G29U C67G,0.000292 ± 8.5e-05

row,Variant,self-cleavage kobs at 10000 uM GlcN6P [s⁻¹]
1,U31A A36C,< 1e-05
2,C16U G29U G40U C50U,< 1e-05
3,C16G G29A G32A,0.00144 ± 0.00032
4,G37A G41U G59C G66U,< 1e-05
5,A15G C16U G29C,0.00377 ± 0.00075
6,A33G C34U C50G C67U,0.000194 ± 3.6e-05
7,G29C A36C,< 1e-05
8,A48U A52C G60A A64C,< 1e-05
9,U57C G62U,< 1e-05
10,A52U C58G U65G,< 1e-05
11,G43C C58G C71A,< 1e-05
12,A23C C68A,5.82e-05 ± 2.4e-05
13,U30G A48C,5.11e-05 ± 1.6e-05
14,U31G C67A C71A,0.000258 ± 6.9e-05
15,G40A U45A G66A,0.00649 ± 0.0018
16,G35A G43C C67G C68G,6.9e-05 ± 2e-05
17,A48U U56A C68U,7.52e-05 ± 1.8e-05
18,G26U U30G C71U,0.000403 ± 6.4e-05
19,U31C U47G C70G,4.82e-05 ± 1.5e-05
20,C16U G26U U31C,5.34e-05 ± 1.7e-05
21,U49C C68A,< 1e-05
22,G44C U45A U46G,3.99e-05 ± 2e-05
23,G37C U46A G60U,< 1e-05

row,Variant,self-cleavage kobs at 10000 uM GlcN6P [s⁻¹]
1,A39U U65A,0.00166 ± 0.00039
2,U30C G41A U54C,< 1e-05
3,C16A U30C C61G,< 1e-05
4,G29C A52U A53C C68G,< 1e-05
5,A48C G62U C67U C71G,< 1e-05
6,A48C C61G C70G,< 1e-05
7,G26U U57G,5.83e-05 ± 2e-05
8,A36C G38U U47C G51C,< 1e-05
9,A33C G38U G41U G43A U56A,< 1e-05
10,A48U C67G,4.58e-05 ± 8.4e-06
11,G29A G32U A52G,3.76e-05 ± 1.7e-05
12,C19A C34G,< 1e-05
13,U27G A42U,0.000136 ± 3e-05
14,C16U G38U A52C C58A,< 1e-05
15,U47A A53G U55A G66C,0.000375 ± 5.9e-05
16,A39C G51C G59C,< 1e-05
17,C34U G37U U46C U47A G62A,< 1e-05
18,U56C U57G G59U,< 1e-05
19,U30C G32A C70G,7.6e-05 ± 1.7e-05
20,A42G G59U,4.33e-05 ± 9.8e-06
21,A15G G41A U54A,9.17e-05 ± 2.8e-05
22,A33G G37U U45C G62U,< 1e-05
23,C16G G38C G40C U45A A52G,< 1e-05

row,Variant,self-cleavage kobs at 10000 uM GlcN6P [s⁻¹]
1,G41U A53G C68U,4.96e-05 ± 1.3e-05
2,G40A G51C C67U,< 1e-05
3,G35C A39C G41U U49G,< 1e-05
4,G41A G66A C68U,3.05e-05 ± 1.3e-05
5,A36U G43U G63C,< 1e-05
6,A15G U31A A36G C58U,< 1e-05
7,C50A G62C,< 1e-05
8,G32A C34U G51C,< 1e-05
9,G40A U69C,5.59e-05 ± 1.9e-05
10,G29A G43U G51A,< 1e-05
11,G26U A53G U69G,5.41e-05 ± 1.5e-05
12,A39G A52C,2.99e-05 ± 1.2e-05
13,A33C G51A A64U,< 1e-05
14,G37A G38A A42C G59U,< 1e-05
15,A39G C58G C67U,3.44e-05 ± 1.2e-05
16,U31G U55G U69G,6.94e-05 ± 1.1e-05
17,C34U G40U A42U,< 1e-05
18,A39C G44C G60U,< 1e-05
19,G40A C58U C67G C71G,< 1e-05
20,U45G U55C G60A G63U,< 1e-05
21,G35C A39U G41C C61A,< 1e-05
22,A39U G41C U49A C61U,< 1e-05
23,C34U C58U,< 1e-05

row,Variant,self-cleavage kobs at 10000 uM GlcN6P [s⁻¹]
1,G38U A64U C71U,< 1e-05
2,A33C G37U,< 1e-05
3,A42U U56C C71U,5.21e-05 ± 2e-05
4,A15U A42U C67A,0.000127 ± 3.2e-05
5,C16U G40U G66U,4.28e-05 ± 1.2e-05
6,A15G U65A G66U,0.000274 ± 4.1e-05
7,G29A G66U C68U,3.63e-05 ± 1.6e-05
8,C16U U30G G59C,< 1e-05
9,C16U G32A C58A U69A,7.78e-05 ± 1.2e-05
10,A36C A39U U55A,< 1e-05
11,G38C G43C G59C,< 1e-05
12,C34U G63C C68G,< 1e-05
13,G37A C50G,< 1e-05
14,G29U U31G G32C C67A C68G,5.79e-05 ± 2.8e-05
15,G35A G37C U47C,< 1e-05
16,A36U U49A A53U,3.89e-05 ± 9.3e-06
17,A42C C61U C68U,< 1e-05
18,G35U G40C A53U U54A,< 1e-05
19,C16U U54A C70G,0.000121 ± 2.5e-05
20,A39U C67G C71A,7.84e-05 ± 1.5e-05
21,A39G U46G,0.018 ± 0.0054
22,A36C U69A C70U,6.82e-05 ± 1.5e-05
23,G32A U57C G62A C67G,< 1e-05

row,Variant,self-cleavage kobs at 10000 uM GlcN6P [s⁻¹]
1,G41U G51U A53C,< 1e-05
2,C16U A39G G40U,0.0008 ± 0.00026
3,C16A U46C U55C,7.09e-05 ± 1.6e-05
4,G35C C67U,0.00429
5,G37A A42C,2.95e-05 ± 8.6e-06
6,G29C G40A A42G,8.98e-05 ± 2.9e-05
7,G38A G44U A53G,< 1e-05
8,A64C U65G,4.42e-05 ± 1.1e-05
9,U45G A53G A64U,8.08e-05 ± 1.8e-05
10,G41C U56A G59C,< 1e-05
11,A15G G43A C58A,< 1e-05
12,A33C A53G A64C,< 1e-05
13,U45C U65G C67A,0.000786 ± 0.00016
14,A39G U56G C68U,0.00322 ± 0.0012
15,A15U C50U C58G,< 1e-05
16,C16U A53G U69G,6.58e-05 ± 1.9e-05
17,A15U G44U C61A,< 1e-05
18,G29U G32A A39U,0.00055 ± 8.7e-05
19,U17A A18C C19A A20G A52G U57G C67A,8.22e-05 ± 1.7e-05
20,A33C G62C C70U,< 1e-05
21,C19A G35C U47C U49G G51U C68U C71U,< 1e-05
22,U54G C58A C71U,0.000213 ± 4.7e-05
23,G29U G41U U45C C70U,0.000108 ± 2.4e-05

row,Variant,self-cleavage kobs at 10000 uM GlcN6P [s⁻¹]
1,C16U A33G A39U,< 1e-05
2,A20U G32C,7.58e-05 ± 2.1e-05
3,G26U A53C,0.00559 ± 0.0013
4,U55G C68A C71U,2.99e-05 ± 1.4e-05
5,A15G U56G C68G,6.13e-05 ± 1.3e-05
6,G29A U31C U54G,0.000213 ± 6.7e-05
7,A15G C67A C68A,5.65e-05 ± 1.7e-05
8,U30C U31G C70G,0.000168 ± 4.5e-05
9,A33G A39U U49C C68G,< 1e-05
10,G44U A64U C67G,6.97e-05 ± 1.6e-05
11,U30C G32C U47G C50G A53U A64G C68A C70A,0.000334 ± 8.3e-05
12,G43U G59C C68A,< 1e-05
13,G32U C34A G37U,< 1e-05
14,U30G G32A C71U,0.00359 ± 0.0005
15,G35C A42C C70U,< 1e-05
16,C16A G29C A39C,0.000349 ± 6.1e-05
17,G44A U56A G60C C68A,< 1e-05
18,G40U U47C G51A G59U C71U,< 1e-05
19,U30G U45A C67A,0.00242 ± 0.00045
20,G37U C58G G63U,< 1e-05
